Test results published in article PMC9240080 (Nature Communications, 2022).

How the values were obtained:
Experiment in all cases: ELISA
Settings in all cases: both partners purified
[1] = biological target: RaTG13-CoV RBD-His8-SpyTag003 (Bat coronavirus RaTG13, heterogeneous N-linked glycosylation)
[2] = biological target: SHC014-CoV RBD-His8-SpyTag003 (Bat SARS-like coronavirus RsSHC014, heterogeneous N-linked glycosylation)
[3] = biological target: Rs4081-CoV RBD-His8-SpyTag003 (Bat SARS-like coronavirus Rs4081, heterogeneous N-linked glycosylation)
[4] = biological target: pangolin17 (pang17)-CoV RBD-His8-SpyTag003 (Pangolin coronavirus pang17, heterogeneous N-linked glycosylation)
[5] = biological target: RmYN02-CoV RBD-His8-SpyTag003 (Bat coronavirus RmYN02, heterogeneous N-linked glycosylation)
[6] = biological target: Rf1-CoV RBD-His8-SpyTag003 (Bat SARS-like coronavirus Rf1, heterogeneous N-linked glycosylation)
[7] = biological target: WIV1-CoV RBD-His8-SpyTag003 (Bat SARS-like coronavirus WIV1, heterogeneous N-linked glycosylation)
[8] = biological target: Yunnan2011 (Yun11)-CoV RBD-His8-SpyTag003 (Bat coronavirus Cp/Yunnan2011, heterogeneous N-linked glycosylation)
[9] = biological target: BM48-31-CoV RBD-His8-SpyTag003 (Bat coronavirus BM48-31, heterogeneous N-linked glycosylation)
[10] = biological target: BtKY72-CoV RBD-His8-SpyTag003 (Bat coronavirus BtKY72, heterogeneous N-linked glycosylation)

Measured: binding result

B1: EY6A (antibody, V domains shown)
VH: EVQLVESGGGVVQPGRSLRLSCAASAFTFSSYDMHWVRQAPGKGLEWVAVISYDGSNKYYADSVKGRFTISRDNSKNTLYLQMNSLRAEDTAVYYCAKDGGKLWVYYFDYWGQGTLVTVSS
VL: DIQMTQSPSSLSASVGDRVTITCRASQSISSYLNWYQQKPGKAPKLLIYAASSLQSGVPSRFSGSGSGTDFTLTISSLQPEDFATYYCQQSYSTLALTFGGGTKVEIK
binds: all assays above
